Test results reported in IntAct's records for PubMed 24530283.

Molecular target: fos_mouse Fos (UniProt P01101)
Sequence (P01101 whole entry): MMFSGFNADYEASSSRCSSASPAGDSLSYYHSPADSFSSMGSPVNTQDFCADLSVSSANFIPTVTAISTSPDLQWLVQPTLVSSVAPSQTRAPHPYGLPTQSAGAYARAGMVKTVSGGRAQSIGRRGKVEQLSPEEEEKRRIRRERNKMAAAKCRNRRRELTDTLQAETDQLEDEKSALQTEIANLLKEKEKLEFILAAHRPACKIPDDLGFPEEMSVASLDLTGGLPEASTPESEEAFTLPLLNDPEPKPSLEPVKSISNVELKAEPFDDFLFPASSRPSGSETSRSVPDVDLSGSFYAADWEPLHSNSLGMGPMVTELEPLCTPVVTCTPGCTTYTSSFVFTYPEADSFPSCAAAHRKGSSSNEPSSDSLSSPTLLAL

Sequence of Transcription factor MafB (Mus musculus), P54841 E269R (P54841 whole entry E269R): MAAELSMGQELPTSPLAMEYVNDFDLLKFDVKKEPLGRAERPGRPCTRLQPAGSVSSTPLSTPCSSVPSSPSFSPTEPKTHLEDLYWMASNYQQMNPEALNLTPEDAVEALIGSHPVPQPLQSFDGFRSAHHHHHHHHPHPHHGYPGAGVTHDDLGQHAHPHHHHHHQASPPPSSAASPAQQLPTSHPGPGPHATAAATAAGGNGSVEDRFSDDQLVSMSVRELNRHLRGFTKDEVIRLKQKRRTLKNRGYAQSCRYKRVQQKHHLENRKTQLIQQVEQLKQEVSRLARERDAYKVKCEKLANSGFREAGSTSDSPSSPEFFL
Sequence of Transcription factor MafB (Mus musculus), P54841 V277N (P54841 whole entry V277N): as the sequence (P54841 whole entry E269R) above, with R269E, V277N counted along it

Substance | effect of a mutation on the interaction
Transcription factor MafB (Mus musculus), P54841 V277N | disrupting interaction strength
Transcription factor MafB (Mus musculus), P54841 E269R | increasing interaction strength
